Molecular target: T1, B-세포 에피토프 펩타이드 Myc362 (human)
T1 construct: Synthetic peptide of over 90% purity, coated on the ELISA plate at 5 ug/ml; also called Myc362 펩타이드
Experiment: ELISA; Myc362 peptide coated at 5 ug/ml, antibody in serial dilution, HRP anti-IgG detection

T1 sequence (peptide, as listed by the source): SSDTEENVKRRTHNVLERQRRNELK

Kd: ~37 nM
B1: 2E2F12 단클론 항체 (anti-Myc362 펩타이드-특이적인 단클론 항체) (antibody, V domains shown)
VH: EVQLQESGTELVKPGASVKLSCKASGYTFTSYWMHWVKLRPGQGFEWIGEINPSSGGTNYNENFKRKATLTVDRSSSTAYMQLSSLTSEDSAVYYCTIHRSYWGQGTTLTVSS
VL: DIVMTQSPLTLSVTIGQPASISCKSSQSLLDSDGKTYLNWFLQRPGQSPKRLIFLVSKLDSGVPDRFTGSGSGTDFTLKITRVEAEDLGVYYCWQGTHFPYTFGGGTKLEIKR
notes: also called 2E2F12 클론; anti-c-Myc 단클론 항체
